Test results from PMC11616081, “Structural basis of archaeal FttA-dependent transcription termination” (Nature, 2024).
One block for each binder: values may come before it.

B2: Tko Spt5 (natural protein, Thermococcus kodakarensis)
chain: MAEGKIFTVSVTVGQETTTANLIYSKAKTYNLPLYAILSPSKVKGYIFIEAPNKSAVEEAIRGIRHAKRVLPGEIPFSEIEHFLEEKPAVSGFEPGDIVELIAGPFKGEKAKVVRVDESKDEIVVELVSSVVPIPVTVRGEYVRLISKRQKE
notes: Spt5, Thermococcus kodakarensis; NGN domain and KOW domain; residues 1-3 not fitted in the map; Used as Spt4/5 (Spt4-Spt5 complex) in the biochemical assays; also called NusG/Spt5
B3: Tko FttA(H255A/H591A) (enzyme, Thermococcus kodakarensis)
chain: MIRRETFVDDILKEIREIIVQMVPREAGITDVEFEGPELVIYVKNPEAMMKDGELIKNLAKVLKKRISVRPDPDILLPPEKAEELIKQLVPPEAEITNISFDPSVGEVLIEARKPGLVIGKNGETLRLITQKVHWAPRVVRTPPIQSQTIYSIRSILQTESKDRRKFLRQVGRNIYRKSEYKSRWIRITGLGGFREVGRSALLVQTDESYVLVDFGVNIAALKDPTKAYPHFDAPEFRYVLDEGLLDAIIITHAALDHSGMLPYLFRYKLFDGPIYTTPPTRDLMTLLQQDFIEIQHMNGVEPLYRPKDIKEVIKHTITLDYGEVRDIAPDIRLTLHNAGHILGSSIVHLHIGNGLHNIAITGDFKFIPTRLFEPAVSRFPRLETLVMESTYGGSNDYQMPREEAEKRLIEVIHQTLKRGGKVLIPAMAVGRAQEIMMVLEEYARVGGIEVPIYLDGMIWEATAIHTAYPEYLSKHIREQIFHEGYNPFLNPIFKSVANSRERQDIIDSGEPAIIIATSGMLVGGPSVEYFKQLAPDPKNSIIFVSYQAEGTLGRQVQRGLREIPIVGEDGRTEVINVNMEVHTIDGFSGAADRRELMSYVARVRPRPERIITVHGEAHKCLDLSSSIHKKFGISTRAPNNLDAIRLK
notes: FttA (aCPSF, aCPSF1), Thermococcus kodakarensis; domains KH1 6-75, KH2 76-144, MβLa 198-428, βCASP 433-557, MβLb 576-639; residues 1-3 of FttA^prox not fitted in the map; Dimer in the structure (protomers FttA^prox and FttA^dist); also called FttA^prox; FttA^dist

Experiments:
Test in all cases: cryo-EM structure; 4 μM Tko RNAP, 8 μM Spt4, 8 μM Spt5 and 5 μM nucleic acid scaffold (TEC[44] or TEC[52]) in 20 mM HEPES-NaOH pH 7.5, 30 mM KCl, 10 mM magnesium acetate, 1 mM dithiothreitol, 10 min at 22 °C; then FttA(H255A/H591A) added, 10 min at 22 °C and 5 min at 42 °C; CHAPSO added before freezing; single-particle reconstruction at 2.5 Å (TEC[44]) and 2.2 Å (TEC[52])
Tko Spt5 = target: B2; settings: both partners purified
Tko FttA(H255A/H591A) = target: B3; settings: both partners purified
[1] = target: the molecule itself

- binding result (Tko Spt5): binds
B1: Tko Spt4 (natural protein, Thermococcus kodakarensis)
chain: MAKERACRHCHYITTEDRCPVCGSRDLSDDWFDLVIVLDVESRIAKKLRESIPEAAKVPGKYAIRVR
notes: Spt4, Thermococcus kodakarensis; residues 1-3 not fitted in the map

Binder: B2
- binding result (Tko FttA(H255A/H591A)): binds

Binder: B3
- stoichiometry N [1]: 2
